# Data as given in patent publication US20240043537A1.
# B1: DART-A-M8 (bispecific antibody)
# chain 1: DFVMTQSPDSLAVSLGERVTMSCKSSQSLLNSGNQKNYLTWYQQKPGQPPKLLIYWASTRESGVPDRFSGSGSGTDFTLTISSLQAEDVAVYYCQNDYSYPYTFGQGTKLEIKGGGSGGGGEVQLVESGGGLVQPGGSLRLSCAASGFTFSTYAMNWVRQAPGKGLEWVGRIRSKYNNYATYYADSVKDRFTISRDDSKNSLYLQMNSLKTEDTAVYYCVRHENFGNSYVSWFAYWGQGTLVTVSSGGCGGGKVAALKEKVAALKEKVAALKEKVAALKE
# chain 2: QAVVTQEPSLTVSPGGTVTLTCRSSTGAVTTSNYANWVQQKPGQAPRGLIGGTNKRAPWTPARFSGSLLGGKAALTITGAQAEDEADYYCALWYSNLWVFGGGTKLTVLGGGGSGGGGEVQLVQSGAELKKPGASVKVSCKASGYTFTDYYMKWVRQAPGQGLEWIGDIIPSNGATFYNQKFKGRVTITVDKSTSTAYMELSSLRSEDTAVYYCARSHLLRASWFAYWGQGTLVTVSSGGCGGGEVAALEKEVAALEKEVAALEKEVAALEK
# B2: DART-A-M4 (bispecific antibody)
# chain 1: DFVMTQSPDSLAVSLGERVTMSCKSSQSLLNSGNQKNYLTWYQQKPGQPPKLLIYWASTRESGVPDRFSGSGSGTDFTLTISSLQAEDVAVYYCQNDYSYPYTFGQGTKLEIKGGGSGGGGEVQLVESGGGLVQPGGSLRLSCAASGFTFSTYAMNWVRQAPGKGLEWVGRIRSKYNNYATYYADSVKDRFTISRDDSKNSLYLQMNSLKTEDTAVYYCVRHGNFGNSAVSWFAYWGQGTLVTVSSGGCGGGKVAALKEKVAALKEKVAALKEKVAALKE
# chain 2: QAVVTQEPSLTVSPGGTVTLTCRSSTGAVTTSNYANWVQQKPGQAPRGLIGGTNKRAPWTPARFSGSLLGGKAALTITGAQAEDEADYYCALWYSNLWVFGGGTKLTVLGGGGSGGGGEVQLVQSGAELKKPGASVKVSCKASGYTFTDYYMKWVRQAPGQGLEWIGDIIPSNGATFYNQKFKGRVTITVDKSTSTAYMELSSLRSEDTAVYYCARSHLLRASWFAYWGQGTLVTVSSGGCGGGEVAALEKEVAALEKEVAALEKEVAALEK
# B3: DART-A-M6 (bispecific antibody)
# chain 1: DFVMTQSPDSLAVSLGERVTMSCKSSQSLLNSGNQKNYLTWYQQKPGQPPKLLIYWASTRESGVPDRFSGSGSGTDFTLTISSLQAEDVAVYYCQNDYSYPYTFGQGTKLEIKGGGSGGGGEVQLVESGGGLVQPGGSLRLSCAASGFTFSTYAMNWVRQAPGKGLEWVGRIRSKYNNYATYYADSVKDRFTISRDDSKNSLYLQMNSLKTEDTAVYYCVRHGNFGNSQVSWFAYWGQGTLVTVSSGGCGGGKVAALKEKVAALKEKVAALKEKVAALKE
# chain 2: QAVVTQEPSLTVSPGGTVTLTCRSSTGAVTTSNYANWVQQKPGQAPRGLIGGTNKRAPWTPARFSGSLLGGKAALTITGAQAEDEADYYCALWYSNLWVFGGGTKLTVLGGGGSGGGGEVQLVQSGAELKKPGASVKVSCKASGYTFTDYYMKWVRQAPGQGLEWIGDIIPSNGATFYNQKFKGRVTITVDKSTSTAYMELSSLRSEDTAVYYCARSHLLRASWFAYWGQGTLVTVSSGGCGGGEVAALEKEVAALEKEVAALEKEVAALEK
# B4: DART-A-M3 (bispecific antibody)
# chain 1: DFVMTQSPDSLAVSLGERVTMSCKSSQSLLNSGNQKNYLTWYQQKPGQPPKLLIYWASTRESGVPDRFSGSGSGTDFTLTISSLQAEDVAVYYCQNDYSYPYTFGQGTKLEIKGGGSGGGGEVQLVESGGGLVQPGGSLRLSCAASGFTFSTYAMNWVRQAPGKGLEWVGRIRSKYNNYATYYADSVKDRFTISRDDSKNSLYLQMNSLKTEDTAVYYCVRHGNFINSYVSWFAYWGQGTLVTVSSGGCGGGKVAALKEKVAALKEKVAALKEKVAALKE
# chain 2: QAVVTQEPSLTVSPGGTVTLTCRSSTGAVTTSNYANWVQQKPGQAPRGLIGGTNKRAPWTPARFSGSLLGGKAALTITGAQAEDEADYYCALWYSNLWVFGGGTKLTVLGGGGSGGGGEVQLVQSGAELKKPGASVKVSCKASGYTFTDYYMKWVRQAPGQGLEWIGDIIPSNGATFYNQKFKGRVTITVDKSTSTAYMELSSLRSEDTAVYYCARSHLLRASWFAYWGQGTLVTVSSGGCGGGEVAALEKEVAALEKEVAALEKEVAALEK
# B5: DART-A-M9 (bispecific antibody)
# chain 1: DFVMTQSPDSLAVSLGERVTMSCKSSQSLLNSGNQKNYLTWYQQKPGQPPKLLIYWASTRESGVPDRFSGSGSGTDFTLTISSLQAEDVAVYYCQNDYSYPYTFGQGTKLEIKGGGSGGGGEVQLVESGGGLVQPGGSLRLSCAASGFTFSTYAMNWVRQAPGKGLEWVGRIRSKYNNYATYYADSVKDRFTISRDDSKNSLYLQMNSLKTEDTAVYYCVRHKNFGNSYVSWFAYWGQGTLVTVSSGGCGGGKVAALKEKVAALKEKVAALKEKVAALKE
# chain 2: QAVVTQEPSLTVSPGGTVTLTCRSSTGAVTTSNYANWVQQKPGQAPRGLIGGTNKRAPWTPARFSGSLLGGKAALTITGAQAEDEADYYCALWYSNLWVFGGGTKLTVLGGGGSGGGGEVQLVQSGAELKKPGASVKVSCKASGYTFTDYYMKWVRQAPGQGLEWIGDIIPSNGATFYNQKFKGRVTITVDKSTSTAYMELSSLRSEDTAVYYCARSHLLRASWFAYWGQGTLVTVSSGGCGGGEVAALEKEVAALEKEVAALEKEVAALEK
# B6: DART-A-M22 (bispecific antibody)
# chain 1: DFVMTQSPDSLAVSLGERVTMSCKSSQSLLNSGNQKNYLTWYQQKPGQPPKLLIYWASTRESGVPDRFSGSGSGTDFTLTISSLQAEDVAVYYCQNDYSYPYTFGQGTKLEIKGGGSGGGGEVQLVESGGGLVQPGGSLRLSCAASGFTFSTYAMNWVRQAPGKGLEWVGRIRSKYNNYATYYADSVKDRFTISRDDSKNSLYLQMNSLKTEDTAVYYCVRHKNFGNSYVSYFAYWGQGTLVTVSSGGCGGGKVAALKEKVAALKEKVAALKEKVAALKE
# chain 2: QAVVTQEPSLTVSPGGTVTLTCRSSTGAVTTSNYANWVQQKPGQAPRGLIGGTNKRAPWTPARFSGSLLGGKAALTITGAQAEDEADYYCALWYSNLWVFGGGTKLTVLGGGGSGGGGEVQLVQSGAELKKPGASVKVSCKASGYTFTDYYMKWVRQAPGQGLEWIGDIIPSNGATFYNQKFKGRVTITVDKSTSTAYMELSSLRSEDTAVYYCARSHLLRASWFAYWGQGTLVTVSSGGCGGGEVAALEKEVAALEKEVAALEKEVAALEK
# What was measured:
# CD3 on T-cells = CD3 on T-cells (UniProt P07766); assay: cell-based or functional assay
# [1] = biological target: CD3 (as used for the BIACORE kinetics of Table 11) (UniProt P07766); assay: SPR (BIACORE)
# Chain of CD3 (as used for the BIACORE kinetics of Table 11) (P07766 23-126): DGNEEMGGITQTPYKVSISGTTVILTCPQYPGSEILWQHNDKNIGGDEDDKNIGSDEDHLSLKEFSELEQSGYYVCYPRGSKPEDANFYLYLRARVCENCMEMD
# Chain of CD3 on T-cells (P07766 23-207): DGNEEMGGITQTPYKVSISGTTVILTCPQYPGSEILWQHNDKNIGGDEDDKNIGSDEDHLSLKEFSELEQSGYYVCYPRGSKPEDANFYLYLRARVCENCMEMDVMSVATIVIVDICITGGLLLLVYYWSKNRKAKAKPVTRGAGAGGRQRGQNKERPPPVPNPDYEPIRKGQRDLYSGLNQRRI
binder,measurement,setting,value
B1,"EC50 of cytolysis at 18 hours (CTL assay, Pan-T-cells and MOLM-13, E:T = 5:1)",CD3 on T-cells,0.069 ng/mL
same,"EC50 of cytolysis at 42 hours (CTL assay, Pan-T-cells and MOLM-13, E:T = 5:1)",CD3 on T-cells,0.005 ng/mL
same,"R: ratio of 18 hour EC50 to DART-A-WT (CTL assay, Pan-T-cells and MOLM-13, E:T = 5:1)",CD3 on T-cells,0.9
same,"R: ratio of 42 hour EC50 to DART-A-WT (CTL assay, Pan-T-cells and MOLM-13, E:T = 5:1)",CD3 on T-cells,1.7
same,"max % CytoTox at 18 hours (CTL assay, Pan-T-cells and MOLM-13, E:T = 5:1)",CD3 on T-cells,38.4%
same,"max % CytoTox at 42 hours (CTL assay, Pan-T-cells and MOLM-13, E:T = 5:1)",CD3 on T-cells,29.4%
same,Kd,[1],6.91 nM
same,R (KD ratio to DART-A-WT),[1],0.8
same,R (ka ratio to DART-A-WT),[1],2.3
same,R (kd ratio to DART-A-WT),[1],1.9
same,koff,[1],0.00784 s⁻¹
same,kon,[1],1.13e+06 M⁻¹ s⁻¹
B2,"EC50 of cytolysis at 18 hours (CTL assay, Pan-T-cells and MOLM-13, E:T = 5:1)",CD3 on T-cells,0.176 ng/mL
same,"EC50 of cytolysis at 42 hours (CTL assay, Pan-T-cells and MOLM-13, E:T = 5:1)",CD3 on T-cells,0.011 ng/mL
same,"R: ratio of 18 hour EC50 to DART-A-WT (CTL assay, Pan-T-cells and MOLM-13, E:T = 5:1)",CD3 on T-cells,2.2
same,"R: ratio of 42 hour EC50 to DART-A-WT (CTL assay, Pan-T-cells and MOLM-13, E:T = 5:1)",CD3 on T-cells,3.9
same,"max % CytoTox at 18 hours (CTL assay, Pan-T-cells and MOLM-13, E:T = 5:1)",CD3 on T-cells,41.7%
same,"max % CytoTox at 42 hours (CTL assay, Pan-T-cells and MOLM-13, E:T = 5:1)",CD3 on T-cells,29.8%
same,Kd,[1],25.7 nM
same,R (KD ratio to DART-A-WT),[1],3.1
same,R (ka ratio to DART-A-WT),[1],1.6
same,R (kd ratio to DART-A-WT),[1],5
same,koff,[1],0.0203 s⁻¹
same,kon,[1],790000 M⁻¹ s⁻¹
B3,"EC50 of cytolysis at 18 hours (CTL assay, Pan-T-cells and MOLM-13, E:T = 5:1)",CD3 on T-cells,0.162 ng/mL
same,"EC50 of cytolysis at 42 hours (CTL assay, Pan-T-cells and MOLM-13, E:T = 5:1)",CD3 on T-cells,0.011 ng/mL
same,"R: ratio of 18 hour EC50 to DART-A-WT (CTL assay, Pan-T-cells and MOLM-13, E:T = 5:1)",CD3 on T-cells,2.1
same,"R: ratio of 42 hour EC50 to DART-A-WT (CTL assay, Pan-T-cells and MOLM-13, E:T = 5:1)",CD3 on T-cells,3.9
same,"max % CytoTox at 18 hours (CTL assay, Pan-T-cells and MOLM-13, E:T = 5:1)",CD3 on T-cells,41.9%
same,"max % CytoTox at 42 hours (CTL assay, Pan-T-cells and MOLM-13, E:T = 5:1)",CD3 on T-cells,29.5%
same,Kd,[1],28.8 nM
same,R (KD ratio to DART-A-WT),[1],3.5
same,R (ka ratio to DART-A-WT),[1],1.4
same,R (kd ratio to DART-A-WT),[1],4.9
same,koff,[1],0.0201 s⁻¹
same,kon,[1],699000 M⁻¹ s⁻¹
B4,"EC50 of cytolysis at 18 hours (CTL assay, Pan-T-cells and MOLM-13, E:T = 5:1)",CD3 on T-cells,0.108 ng/mL
same,"EC50 of cytolysis at 42 hours (CTL assay, Pan-T-cells and MOLM-13, E:T = 5:1)",CD3 on T-cells,0.006 ng/mL
same,"R: ratio of 18 hour EC50 to DART-A-WT (CTL assay, Pan-T-cells and MOLM-13, E:T = 5:1)",CD3 on T-cells,1.4
same,"R: ratio of 42 hour EC50 to DART-A-WT (CTL assay, Pan-T-cells and MOLM-13, E:T = 5:1)",CD3 on T-cells,2.3
same,"max % CytoTox at 18 hours (CTL assay, Pan-T-cells and MOLM-13, E:T = 5:1)",CD3 on T-cells,39.7%
same,"max % CytoTox at 42 hours (CTL assay, Pan-T-cells and MOLM-13, E:T = 5:1)",CD3 on T-cells,28.6%
same,Kd,[1],18.5 nM
same,R (KD ratio to DART-A-WT),[1],2.3
same,R (ka ratio to DART-A-WT),[1],0.9
same,R (kd ratio to DART-A-WT),[1],2
same,koff,[1],0.0083 s⁻¹
same,kon,[1],449000 M⁻¹ s⁻¹
B5,"EC50 of cytolysis at 18 hours (CTL assay, Pan-T-cells and MOLM-13, E:T = 5:1)",CD3 on T-cells,0.075 ng/mL
same,"EC50 of cytolysis at 42 hours (CTL assay, Pan-T-cells and MOLM-13, E:T = 5:1)",CD3 on T-cells,0.001 ng/mL
same,"R: ratio of 18 hour EC50 to DART-A-WT (CTL assay, Pan-T-cells and MOLM-13, E:T = 5:1)",CD3 on T-cells,1
same,"R: ratio of 42 hour EC50 to DART-A-WT (CTL assay, Pan-T-cells and MOLM-13, E:T = 5:1)",CD3 on T-cells,0.4
same,"max % CytoTox at 18 hours (CTL assay, Pan-T-cells and MOLM-13, E:T = 5:1)",CD3 on T-cells,38.2%
same,"max % CytoTox at 42 hours (CTL assay, Pan-T-cells and MOLM-13, E:T = 5:1)",CD3 on T-cells,30.5%
same,Kd,[1],3.33 nM
same,R (KD ratio to DART-A-WT),[1],0.4
same,R (ka ratio to DART-A-WT),[1],4.3
same,R (kd ratio to DART-A-WT),[1],1.8
same,koff,[1],0.00716 s⁻¹
same,kon,[1],2.15e+06 M⁻¹ s⁻¹
B6,"EC50 of cytolysis at 18 hours (CTL assay, Pan-T-cells and MOLM-13, E:T = 5:1)",CD3 on T-cells,0.072 ng/mL
same,"EC50 of cytolysis at 42 hours (CTL assay, Pan-T-cells and MOLM-13, E:T = 5:1)",CD3 on T-cells,0.01 ng/mL
same,"R: ratio of 18 hour EC50 to DART-A-WT (CTL assay, Pan-T-cells and MOLM-13, E:T = 5:1)",CD3 on T-cells,0.9
same,"R: ratio of 42 hour EC50 to DART-A-WT (CTL assay, Pan-T-cells and MOLM-13, E:T = 5:1)",CD3 on T-cells,3.5
same,"max % CytoTox at 18 hours (CTL assay, Pan-T-cells and MOLM-13, E:T = 5:1)",CD3 on T-cells,38.3%
same,"max % CytoTox at 42 hours (CTL assay, Pan-T-cells and MOLM-13, E:T = 5:1)",CD3 on T-cells,31.6%
same,Kd,[1],6.6 nM
same,R (KD ratio to DART-A-WT),[1],0.8
same,R (ka ratio to DART-A-WT),[1],4.7
same,R (kd ratio to DART-A-WT),[1],3.8
same,koff,[1],0.0156 s⁻¹
same,kon,[1],2.37e+06 M⁻¹ s⁻¹
